Experimental data as given in patent publication US20250163164A1 (LANOVA MEDICINES DEVELOPMENT, published 2025).
Values joined by “and” are separate entries in the source; they are usually repeats but may differ in a detail not shown here. Equal values may be shown once. Read-outs that look alike come from different tables or passages of the source.

T1: human interleukin 13 receptor subunit alpha 2 (IL-13RA2) (human, UniProt Q14627 27-380)
T1 construct: whole, on cells; also called IL-13Rα2; CD213A2
T1 sequence (looked up): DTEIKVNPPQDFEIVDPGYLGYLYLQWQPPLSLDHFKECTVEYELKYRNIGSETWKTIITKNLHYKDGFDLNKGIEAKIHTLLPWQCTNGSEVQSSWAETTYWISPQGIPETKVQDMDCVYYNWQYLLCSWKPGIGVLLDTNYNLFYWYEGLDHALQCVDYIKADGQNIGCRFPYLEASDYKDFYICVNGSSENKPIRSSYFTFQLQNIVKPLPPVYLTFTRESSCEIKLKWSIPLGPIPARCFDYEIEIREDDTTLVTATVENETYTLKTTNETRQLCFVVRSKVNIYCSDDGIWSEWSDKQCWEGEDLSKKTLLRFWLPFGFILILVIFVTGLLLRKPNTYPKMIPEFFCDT


Legend:
[1] = biological target: T1, human interleukin 13 receptor subunit …; assay: FACS on A375 cells
Protocol: (§1) A375 cells that endogenously expressed IL-13RA2, were harvested from flasks. 100 μl of 1×10⁶ cells/ml of cells were incubated with primary humanized antibodies in 4-fold serial dilutions starting from 200 nM to 0.003 nM for 30 minutes on ice. After being washed with 200 μl of FACS buffer twice, cells were incubated with secondary antibody for 30 minutes on ice. Cells were washed with 200 μl of FACS buffer twice and analyzed by FACS.

[2] = biological target: T1, human interleukin 13 receptor subunit …; assay: cell-based or functional assay
[3] = biological target: T1, human interleukin 13 receptor subunit …; assay: FACS on A375 cells; remark: listed apart in the source
Protocol: as §1, with “primary chimeric” for “primary humanized”, “in 3-fold” for “in 4-fold”, “from 300” for “from 200”, “to 0.002” for “to 0.003”
As shown in FIG. 3 and Table 4, the chimeric antibodies bound to human IL-13RA2 at different EC50.

Binder | EC50 [1] | internalization EC50 (pHAb dye), A375 cells [2] [nM] | internalization EC50 (pHAb dye), CHO-K1/H_IL-13RA2 cells [2] [nM] | internalization EC50 (pHAb dye), HEK-293/H IL-13RA2 cells [2] [nM] | internalization Top (MFI), A375 cells [2] [MFI] | internalization Top (MFI), CHO-K1/H_IL-13RA2 cells [2] [MFI] | internalization Top (MFI), HEK-293/H IL-13RA2 cells [2] [MFI] | EC50 [3] [nM] | Top (MFI) [3] [MFI]
xi61H8C1 hIgG1 (antibody, V domains shown) VH: QVQLQQSGAELARPGASVMLSCKASGYTFTSYWTQWIKQRPGQGLEGIGAIYPGDDDTSYNQKFKGKATLTADKSSSTAYMQLNSLTSEDSAVYYCARGATLLRPFPYWGQGTLVTVSA VL: DIVMTQSHKFMSTSVGDRVSITCKASQDVSTAVAWYQQKPGQSPKLLIYSASYRYTGVPDRFTGSGSGTDFTFTISSVQAEDLAVYSCQQHYSIPPTFGGGTKLEIK | 0.16 nM | ~0.441 | 1.02 | 1.49 | 3820 | 16900 | 24700 | 0.47 | 15600
xi72B4H4 hIgG1 (antibody, V domains shown) VH: QVQLQQPGAERVRPGASVKLSCKASGYTFTNYWMNWVKQRPEQGLEWIGRIDPYAGETHYNQKFKDKAILTVDKSSSTAYMQLRSLTSEDSAVYYCARGYGDSYGMDHWGQGTSVTVSS VL: not shown | 0.36 nM and 0.581 nM | 1.06 | 2.92 | 2.18 | 5260 | 18700 | 19500 | 0.85 | 16900
xi73A11E2 hIgG1 (antibody, V domains shown) VH: EVKLVESGGGLVKPGGSLKLSCAASGFTFSSYGMSWVRQTPEKRLEWVATISGGGSYTYYPDSVKGRFTISRDNARNNLYLQMNSLRSEDTALYYCARRDLRSAMDYWGQGTSVTVSS VL: DIVMTQSQKFMSTSVGDRVSVTCKASQNVDINVAWYQQKPGQSPKALIYSASYRYSGVPDRFTGSGSGTDFTLTISNVQSEDLAEFFCQQYNSYPLTFGGGTKLEIK | 0.26 nM and 0.359 nM and 0.45 nM | 0.77 | 1.52 | 1.98 | 4310 | 17900 | 23500 | 0.65 | 18000
xi57F8H3F1 hIgG1 (antibody, V domains shown) VH: QVQLQQPGAELVRPGASVKLSCKASGYTFTNYWMNWIKQRPEQGLEWIGRIDPYETETHYNQKFRDRAILTVDKSSSTAFMQLSGLTSEDSAVYYCARGYGHYYGVDYWGQGTSVTVSS VL: not shown | 0.33 nM and 0.41 nM | 0.74 | 2.37 | 2.42 | 2720 | 19200 | 26000 | 0.99 | 17600
